The source of these data is the supplement of paper PMC12042874.

± gives the uncertainty stated by the source.

A short description of the first series: amyloid nucleation score (Sup35N fusion, yeast selection) (log enrichment); library NNK1; higher = more nucleation; inactive = no reads after selection. A digest of the protocol:
(§1)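 Random libraries were run with three technical output replicates. In each, psi-negative yeast expressing Sup35N fused to peptides of 20 random codons were induced 24 hours with 100 μM copper sulfate and grown 7 days at 30°C on medium lacking adenine and uracil, and input and output plasmid inserts were Illumina-sequenced. The nucleation score is the DiMSum log enrichment of output over input reads, centred on the mode score of non-aggregating sequences, and sequences under 100 input reads were excluded.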
The substance SNLVGEVYCNL displayed an amyloid nucleation score of 0.914 ± 0.57.

In the case of GYGSHNEAGKLGVGGEVCYG, the amyloid nucleation score was found to be 3.85 ± 0.065. On the same count and under the same terms, the value for VKTHSVFSMMVV was 0.558 ± 0.51.

LWCCGGAFHSTDLGSAGLIM gave an amyloid nucleation score of 0.372 ± 1.4. Same read-out and setting: the value for SVWNILLIV was 0.665 ± 0.34; that for YSSSRRDCRRPGTMYRPLPQ was -0.547 ± 0.55.

For PVCWSHFYFRVDVFYEWGRV, the amyloid nucleation score was -0.274 ± 0.39.

TDWARTRSQRHVLHDSPAGL came in with an amyloid nucleation score of -0.452 ± 1.4. Same read-out and setting: to KSDSVLAGY belongs 5.039 ± 0.05; to MENEWIVTSCFLFWINFYSV, 4.23 ± 0.072; to WAVSGVDKVTRLGSEGVMQS, -0.809 ± 0.9. The same measure, in the same setting: to VRMKPCSLLNLGTYPAQNVM belongs -0.888 ± 1.9. Turning to KIIPRRRKSFMLNTFKYPHD, the amyloid nucleation score was 1.62 ± 0.52. Same read-out and setting: to PYFLNCRPLRA belongs 0.815 ± 0.52; to PMSLPTYLRIPRFVLLAWAE, -0.034 ± 0.39; to YELKQSL, -0.301 ± 0.73. Turning to VSWDSMYMAMPWVIVHVL, the amyloid nucleation score entry was “inactive”.

Turning to SCIKNSCGINYLVGQATFHN, the amyloid nucleation score is 6.499 ± 0.049.

As to SFFFKFYSDSFGNSTFQTID, the amyloid nucleation score was -0.046 ± 0.31. On the same count and under the same terms, to FFRDSHYIQRDKSQPSRGSN belongs -0.269 ± 1.1.

As for VLLIPMTKAKMKMSIW, the amyloid nucleation score is 0.584 ± 0.34.

As for NLVRLVRIARCSMRSSVGTL, the amyloid nucleation score is 1.23 ± 0.16. Regarding VQEYGASCKSMTGLGTLKCK, the amyloid nucleation score came out at 0.876 ± 0.81. The substance MMPFYHSNSR registered an amyloid nucleation score of -1.38 ± 1.1. Regarding FRYVDALHDRSSYIQIGKRI, the amyloid nucleation score is -0.423 ± 1.5. Take NQIFVQCSVGKAWDRSKSVD: the amyloid nucleation score is 4.12 ± 0.081. Turning to TFGNLRMDVRAPTRFKDLLK, the amyloid nucleation score came out at 1.27 ± 0.47.

Turning to LHLNLLAQDHLCREMTAAMS, the amyloid nucleation score was -0.771 ± 1.7. Still for that read-out and setting: to NIIIVNSSVG belongs 1.49 ± 0.37. Same read-out and setting: to RTRLFYFGPDNNRVRRRGCS belongs 1.13 ± 0.71. Same read-out and setting: the value for HLWHSGPFVRMCCATFIFLA was 0.49 ± 0.75. The substance LSTPYHQWLLAGRSRWASRK registered an amyloid nucleation score of 0.609 ± 0.49. The same measure, in the same setting: to AWIRGQTVSCLYYAEGLELG belongs -0.448 ± 0.71; to FSQRMGICYNVREFCNEFRC, 1.47 ± 0.14; to SRCNHICHNYISMFLINCEL, 5.71 ± 0.061. On the same count and under the same terms, to TIGFTHYCCSFKS belongs -1.23 ± 0.52; to QNPWNGILLAKNWRDKMLRN, 0.3 ± 0.52; to HIQRYMWKGGLEFVLIVRRA, 1.2 ± 0.4. The same measure, in the same setting: the value for IVGFHGSNFYSDVSVIGQML was “inactive”. In turn, LMWCGSANMY registered an amyloid nucleation score of 0.632 ± 1.2. The same measure, in the same setting: the value for FSGHNC was 0.299 ± 0.35; that for HLLALFTSFVTITPW was -0.986 ± 0.88. In turn, SKQFQASFHRVYSSVFSGWH registered an amyloid nucleation score of 0.669 ± 0.38. Same read-out and setting: the value for LGFSSVYWESCSL was -0.275 ± 0.58; that for FLWVTWYFSTVFYVNWALE was 0.505 ± 0.89. On the same count and under the same terms, the value for ISLVLDFGDVYIVS was 6.203 ± 0.048. LCLTKNMCTSIVRVRALVCR: the amyloid nucleation score was -0.161 ± 0.26. Same read-out and setting: to LNFDNFLLMWTMLVNRIISD belongs 0.574 ± 0.97; to YSFIKCGSMCKEYKPCPTKL, -0.11 ± 0.51; to SVRSVRSNPRFTSHLPCSKK, -0.413 ± 0.54. Same read-out and setting: to TGPDSISAYQHLFNCS belongs 1.64 ± 0.54. The same measure, in the same setting: the value for IYNFSKYPVFGKTRALGFNF was -0.395 ± 0.67.

The next series can be described thus: amyloid nucleation score (Sup35N fusion, yeast selection) (log enrichment); library NNK2; higher = more nucleation; inactive = no reads after selection. The gist of the method:
as §1
In the case of IIVIRD, the amyloid nucleation score was found to be 0.005 ± 0.36.

SFYRHGFTGNGTSVRGPDRS yielded an amyloid nucleation score of 0.097 ± 0.79.

KMIVLK returned an amyloid nucleation score of 0.449 ± 0.41. Same read-out and setting: to TIILG belongs -0.637 ± 0.27. The same measure, in the same setting: the value for SFGFVAMMIVRCANFRASPV was 0.688 ± 0.81. Same read-out and setting: the value for LCIYFICSGLVRRLEWVG was -0.871 ± 0.3; that for ATVIEYKYVRGMYLLMTYTY was -0.536 ± 1; that for GSNHRSVVFIFLMLMGFMES was -0.205 ± 0.76. Consider SMYDAGIFVGYCLRGFLYDC, for which the amyloid nucleation score result was “inactive”. Still for that read-out and setting: to IYCNNPRWSFLHSLKLEPLG belongs -0.476 ± 0.28. For NCTRSSVWNNVVCLESHPSY, the amyloid nucleation score was -0.035 ± 0.76. On the same count and under the same terms, the value for RFFYSCQASYPCSMVEMSVC was -0.901 ± 0.44; that for FHSRFSMRPDDLWSQNARVW was 0.028 ± 0.79. The same measure, in the same setting: to NLYTA belongs 0.49 ± 0.29; to TPDGIRLSVAHCS, 0.764 ± 0.24; to RRRCFQLK, 0.294 ± 0.8. Still for that read-out and setting: the value for SDHTVELFTCKPVMQTRQRT was 0.439 ± 0.27. Consider KFKVHQMQDVLSWVGYHDGS, for which the amyloid nucleation score amounted to 4.13 ± 0.044.

As for FDLCCMKYHSYHMQFI, the amyloid nucleation score is -0.214 ± 1. Same read-out and setting: the value for AVQVLYRGTFLLPFWRVANV was -0.487 ± 1.1. The same measure, in the same setting: to TIEGALSSS belongs 0.931 ± 0.22; to FESRFYHSVLTIVTLFTYPA, -0.025 ± 1.1. As for LWHHIHSDLMTIYFVLDSSG, the amyloid nucleation score entry was “inactive”. Still for that read-out and setting: the value for RLISYNSCLSWSSWG was 3.48 ± 0.087; that for RDVFVLCWDFFMVERCRDRC was 5.85 ± 0.072.

Substance HCRSIVWSRYFLMNPLN registered an amyloid nucleation score of -0.029 ± 0.61. Still for that read-out and setting: to GFKAMRCLWSGVARSIVRDS belongs -0.242 ± 0.49; to IFDCCY, -1.82 ± 1.1; to LILMAENL, -0.92 ± 1.1. As to FLLRHSSCEVIGC, the amyloid nucleation score is 0.665 ± 0.36. On the same count and under the same terms, the value for IPEVQCIKFMSYSGCHIQAL was “inactive”; that for VLFKIIRLRLENIPSSWWVI was 0.152 ± 0.32; that for NMDSGLVMVVLVCDDYMTTT was 0.119 ± 0.61. Still for that read-out and setting: the value for DMYLRIS was “inactive”. On the same count and under the same terms, the value for DVSVNRARFPREF was 1.1 ± 0.17; that for YTRLYFNEHDFYFFVGIMT was “inactive”; that for SLMDLDFPLTSR was -0.334 ± 0.61.

As for FSSFDIMRQLTMLNICLVSW, the amyloid nucleation score was 5.773 ± 0.047.

For ITCTFFFSVSVLSTSVDSMY, the amyloid nucleation score worked out at 0.674 ± 0.57. On the same count and under the same terms, the value for TFDLSWLVHVPDNCCHLLCF was -0.183 ± 0.28; that for VNWIKGKGRLPPFHGIDCWW was -0.139 ± 0.63; that for WVMAVVDHVLSWFYWRLCLF was 3.26 ± 0.058. The same measure, in the same setting: to PLLFTWAVLINALWVKSTPG belongs -0.19 ± 1; to AGWNLFLEGVYVW, -0.387 ± 1.1; to HLLYPSSMVDRALHGLDTRT, 5.358 ± 0.051. Consider KLVVLCFLSVIVWVNGQR, for which the amyloid nucleation score stood at 4.67 ± 0.07. Still for that read-out and setting: to NISFGSYILLRFLMRVE belongs 0.58 ± 0.6. The same measure, in the same setting: to HLGKASYREFSFFKGLGY belongs “inactive”. The substance FFVLRHA displayed an amyloid nucleation score of -0.513 ± 0.32.

With QYALLVY, the amyloid nucleation score entry is “inactive”. Same read-out and setting: the value for GTVGGVGMFVLLVTRSKVFV was 1.3 ± 0.29.
